# Test results reported in paper PMC3441751, “Structure and Assembly of a Trans-Periplasmic Channel for Type IV Pili in Neisseria meningitidis” (PLoS Pathogens, 2012).
# B1: PilQ dodecamer (complete N. meningitidis PilQ oligomer) (natural protein)
# chain: GNITDIKVSSLPNKQKIVKVSFDKEIVNPTGFVTSSPARIALDFEQTGISMDQQVLEYADPLLSKISAAQNSSRARLVLNLNKPGQYNTEVRGNKVWIFINESDDTVSAPARPAVKAAPAAPAKQQAAAPSTKSAVSVSEPFTPAKQQAAAPFTESVVSVSAPFSPAKQQAAASAKQQAAAPAKQQAAAPAKQQAAAPAKQTNIDFRKDGKNAGIIELAALGFAGQPDISQQHDHIIVTLKNHTLPTTLQRSLDVADFKTPVQKVTLKRLNNDTQLIITTAGNWELVNKSAAPGYFTFQVLPKKQNLESGGVNNAPKTFTGRKISLDFQDVEIRTILQILAKESGMNIVASDSVNGKMTLSLKDVPWDQALDLVMQARNLDMRQQGNIVNIAPRDELLAKDKALLQAEKDIADLGALYSQNFQLKYKNVEEFRSILRLDNADTTGNRNTLISGRGSVLIDPATNTLIVTDTRSVIEKFRKLIDELDVPAQQVMIEARIVEAADGFSRDLGVKFGATGKKKLKNDTSAFGWGVNSGFGGDDKWGAETKINLPITAAANSISLVRAISSGALNLELSASESLSKTKTLANPRVLTQNRKEAKIESGYEIPFTVTSIANGGSSTNTELKKAVLGLTVTPNITPDGQIIMTVKINKDSPAQCASGNQTILCISTKNLNTQAMVENGGTLIVGGIYEEDNGNTLTKVPLLGDIPVIGNLFKTRGKKTDRRELLIFITPRIMGTAGNSLRY
# notes: PilQ secretin, Neisseria meningitidis; The source of the sample is in Text S1; also called entire PilQ dodecamer; intact PilQ oligomer; source: PilQ complexes resuspended in a dodecyl maltoside-containing buffer at 1 mg/ml; copies: 12
# Biological target: the molecule itself
# Test: cryo-EM structure; single particle averaging of unstained frozen-hydrated PilQ complexes in a dodecyl maltoside-containing buffer at 1 mg/ml; 25,303 particles; C12 symmetry
protein,measurement,value
B1,stoichiometry N,12
